Experimental data reported in IntAct's records for PubMed 14504388.

B1: Protein phosphatase 2C 77 (Arabidopsis thaliana (Mouse-ear cress)), O04719 (parent)
chain: MDEVSPAVAVPFRPFTDPHAGLRGYCNGESRVTLPESSCSGDGAMKDSSFEINTRQDSLTSSSSAMAGVDISAGDEINGSDEFDPRSMNQSEKKVLSRTESRSLFEFKCVPLYGVTSICGRRPEMEDSVSTIPRFLQVSSSSLLDGRVTNGFNPHLSAHFFGVYDGHGGSQVANYCRERMHLALTEEIVKEKPEFCDGDTWQEKWKKALFNSFMRVDSEIETVAHAPETVGSTSVVAVVFPTHIFVANCGDSRAVLCRGKTPLALSVDHKPDRDDEAARIEAAGGKVIRWNGARVFGVLAMSRSIGDRYLKPSVIPDPEVTSVRRVKEDDCLILASDGLWDVMTNEEVCDLARKRILLWHKKNAMAGEALLPAEKRGEGKDPAAMSAAEYLSKMALQKGSKDNISVVVVDLKGIRKFKSKSLN
partner: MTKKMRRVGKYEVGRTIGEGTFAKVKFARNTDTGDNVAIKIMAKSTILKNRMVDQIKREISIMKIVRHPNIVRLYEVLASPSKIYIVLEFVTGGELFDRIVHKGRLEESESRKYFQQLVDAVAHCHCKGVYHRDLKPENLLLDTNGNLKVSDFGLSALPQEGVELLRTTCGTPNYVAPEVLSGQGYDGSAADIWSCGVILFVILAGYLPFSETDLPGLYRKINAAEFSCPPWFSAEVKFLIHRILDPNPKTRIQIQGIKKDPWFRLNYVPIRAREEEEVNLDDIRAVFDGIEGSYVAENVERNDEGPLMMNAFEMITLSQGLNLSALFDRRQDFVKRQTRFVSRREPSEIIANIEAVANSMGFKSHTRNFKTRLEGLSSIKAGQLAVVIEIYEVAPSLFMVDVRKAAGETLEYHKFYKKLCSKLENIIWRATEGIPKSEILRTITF
B2: CBL-interacting serine/threonine-protein kinase 24 (Arabidopsis thaliana (Mouse-ear cress)), Q9LDI3 (parent)
chain: B1 partner

Variants of: B1
Settings: with cipko_arath CIPK24, Q9LDI3

| Variant | effect of a mutation on the interaction |
| --- | --- |
| G168D | decreasing interaction |
| G162D | decreasing interaction |

Variants of: B2
Settings: with ABI2, O04719

| Variant | effect of a mutation on the interaction |
| --- | --- |
| R340A;F341A | decreasing interaction |
